Laboratory results taken from US20160207963A1 (GlaxoSmithKline, published 2016).

How the values were obtained:
[1] = molecular target: purified, his-tag depleted, recombinant Viet04 HA trimers (influenza A virus A/Vietnam/1203/04 …, UniProt Q6J8F6 17-531); test: complex formation, size exclusion gel filtration (Superdex 200)
[2] = molecular target: Vietnam Wt (HA1) (influenza A virus A/Vietnam/1203/04 …, UniProt Q6J8F6 17-346); test: biolayer interferometry (ForteBio), HA1 on biosensors probed with IgG 10 µg/ml

| Binder | binding result [1] | binding result [2] |
| --- | --- | --- |
| 1A2 Fab (Fab, V domains shown) VH: EVQLQQSGPELVKPGASVKMSCKASGYTFTSFIMYWVKQKPGQGLEWLGYIDPYNDGTKYNEKFEGKATLTSDKSSSTAYMELSSLTSEDSAVYYCAKRGNYGNGFAYWGQGTLVTVSA VL: DIVMTQSQKFVSTSVGDRVSVTCKASQNVGSNVAWYQHKPGHSPTALIYSASHRYSGVPDRFTGSESGTDFTLTISNVQSEDLAEYFCQQYYSYPYTFGGGTKLEIKR | binds | – |
| mouse IgG 1A2 (antibody, V domains shown) VH: EVQLQQSGPELVKPGASVKMSCKASGYTFTSFIMYWVKQKPGQGLEWLGYIDPYNDGTKYNEKFEGKATLTSDKSSSTAYMELSSLTSEDSAVYYCAKRGNYGNGFAYWGQGTLVTVSA VL: DIVMTQSQKFVSTSVGDRVSVTCKASQNVGSNVAWYQHKPGHSPTALIYSASHRYSGVPDRFTGSESGTDFTLTISNVQSEDLAEYFCQQYYSYPYTFGGGTKLEIKR | – | binds |
